In patent US20210388087A1 (Chugai, published 2021):

T1: Human CD3eg linker (human)
T1 construct: Single-chain construct; also called recombinant human CD3
T1 chain: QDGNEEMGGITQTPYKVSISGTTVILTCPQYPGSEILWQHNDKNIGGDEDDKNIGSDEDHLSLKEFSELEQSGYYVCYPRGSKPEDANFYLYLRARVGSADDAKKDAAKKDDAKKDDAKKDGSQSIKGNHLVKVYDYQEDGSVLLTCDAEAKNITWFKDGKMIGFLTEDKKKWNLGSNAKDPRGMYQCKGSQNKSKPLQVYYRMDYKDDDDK


Molecular target: T1, Human CD3eg linker
Assay: SPR; fold vs parent H183/L072

Binder | fold change of affinity [fold]
H183/L072 VL A89M (antibody, name in Kabat numbering, V domains shown) VH: QVQLVESGGGLVQPGRSLRLSCAASGFTFSNAWMHWVRQAPGKGLEWVAQIKDKGNAYAAYYAPSVKGRFTISRDDSKNSIYLQMNSLKTEDTAVYYCHYVHYASASTVLPAFGVDAWGQGTTVTVSS VL: DIVMTQSPLSLPVTPGEPASISCQASQELVHMNRNTYLHWYQQKPGQAPRLLIYKVSNRFPGVPDRFSGSGSGTDFTLKISRVEAEDVGVYYCMQGTSVPFTFGQGTKLEIK | 0.1
H183/L072 VL A89K (antibody, name in Kabat numbering, V domains shown) VH: QVQLVESGGGLVQPGRSLRLSCAASGFTFSNAWMHWVRQAPGKGLEWVAQIKDKGNAYAAYYAPSVKGRFTISRDDSKNSIYLQMNSLKTEDTAVYYCHYVHYASASTVLPAFGVDAWGQGTTVTVSS VL: DIVMTQSPLSLPVTPGEPASISCQASQELVHMNRNTYLHWYQQKPGQAPRLLIYKVSNRFPGVPDRFSGSGSGTDFTLKISRVEAEDVGVYYCKQGTSVPFTFGQGTKLEIK | 1.1
H183/L072 VL A89S (antibody, name in Kabat numbering, V domains shown) VH: QVQLVESGGGLVQPGRSLRLSCAASGFTFSNAWMHWVRQAPGKGLEWVAQIKDKGNAYAAYYAPSVKGRFTISRDDSKNSIYLQMNSLKTEDTAVYYCHYVHYASASTVLPAFGVDAWGQGTTVTVSS VL: DIVMTQSPLSLPVTPGEPASISCQASQELVHMNRNTYLHWYQQKPGQAPRLLIYKVSNRFPGVPDRFSGSGSGTDFTLKISRVEAEDVGVYYCSQGTSVPFTFGQGTKLEIK | 0.6
H183/L072 VL A89W (antibody, name in Kabat numbering, V domains shown) VH: QVQLVESGGGLVQPGRSLRLSCAASGFTFSNAWMHWVRQAPGKGLEWVAQIKDKGNAYAAYYAPSVKGRFTISRDDSKNSIYLQMNSLKTEDTAVYYCHYVHYASASTVLPAFGVDAWGQGTTVTVSS VL: DIVMTQSPLSLPVTPGEPASISCQASQELVHMNRNTYLHWYQQKPGQAPRLLIYKVSNRFPGVPDRFSGSGSGTDFTLKISRVEAEDVGVYYCWQGTSVPFTFGQGTKLEIK | 0.1
H183/L072 VL A89Q (antibody, name in Kabat numbering, V domains shown) VH: QVQLVESGGGLVQPGRSLRLSCAASGFTFSNAWMHWVRQAPGKGLEWVAQIKDKGNAYAAYYAPSVKGRFTISRDDSKNSIYLQMNSLKTEDTAVYYCHYVHYASASTVLPAFGVDAWGQGTTVTVSS VL: DIVMTQSPLSLPVTPGEPASISCQASQELVHMNRNTYLHWYQQKPGQAPRLLIYKVSNRFPGVPDRFSGSGSGTDFTLKISRVEAEDVGVYYCQQGTSVPFTFGQGTKLEIK | 0.2
H183/L072 VL E27aD (antibody, name in Kabat numbering, V domains shown) VH: QVQLVESGGGLVQPGRSLRLSCAASGFTFSNAWMHWVRQAPGKGLEWVAQIKDKGNAYAAYYAPSVKGRFTISRDDSKNSIYLQMNSLKTEDTAVYYCHYVHYASASTVLPAFGVDAWGQGTTVTVSS VL: DIVMTQSPLSLPVTPGEPASISCQASQDLVHMNRNTYLHWYQQKPGQAPRLLIYKVSNRFPGVPDRFSGSGSGTDFTLKISRVEAEDVGVYYCAQGTSVPFTFGQGTKLEIK | 1.1
H183/L072 VL A89T (antibody, name in Kabat numbering, V domains shown) VH: QVQLVESGGGLVQPGRSLRLSCAASGFTFSNAWMHWVRQAPGKGLEWVAQIKDKGNAYAAYYAPSVKGRFTISRDDSKNSIYLQMNSLKTEDTAVYYCHYVHYASASTVLPAFGVDAWGQGTTVTVSS VL: DIVMTQSPLSLPVTPGEPASISCQASQELVHMNRNTYLHWYQQKPGQAPRLLIYKVSNRFPGVPDRFSGSGSGTDFTLKISRVEAEDVGVYYCTQGTSVPFTFGQGTKLEIK | 0
H183/L072 VL A89H (antibody, name in Kabat numbering, V domains shown) VH: QVQLVESGGGLVQPGRSLRLSCAASGFTFSNAWMHWVRQAPGKGLEWVAQIKDKGNAYAAYYAPSVKGRFTISRDDSKNSIYLQMNSLKTEDTAVYYCHYVHYASASTVLPAFGVDAWGQGTTVTVSS VL: DIVMTQSPLSLPVTPGEPASISCQASQELVHMNRNTYLHWYQQKPGQAPRLLIYKVSNRFPGVPDRFSGSGSGTDFTLKISRVEAEDVGVYYCHQGTSVPFTFGQGTKLEIK | 0
H183/L072 VL E27aA (antibody, name in Kabat numbering, V domains shown) VH: QVQLVESGGGLVQPGRSLRLSCAASGFTFSNAWMHWVRQAPGKGLEWVAQIKDKGNAYAAYYAPSVKGRFTISRDDSKNSIYLQMNSLKTEDTAVYYCHYVHYASASTVLPAFGVDAWGQGTTVTVSS VL: DIVMTQSPLSLPVTPGEPASISCQASQALVHMNRNTYLHWYQQKPGQAPRLLIYKVSNRFPGVPDRFSGSGSGTDFTLKISRVEAEDVGVYYCAQGTSVPFTFGQGTKLEIK | 1.2
H183/L072 VL E27aI (antibody, name in Kabat numbering, V domains shown) VH: QVQLVESGGGLVQPGRSLRLSCAASGFTFSNAWMHWVRQAPGKGLEWVAQIKDKGNAYAAYYAPSVKGRFTISRDDSKNSIYLQMNSLKTEDTAVYYCHYVHYASASTVLPAFGVDAWGQGTTVTVSS VL: DIVMTQSPLSLPVTPGEPASISCQASQILVHMNRNTYLHWYQQKPGQAPRLLIYKVSNRFPGVPDRFSGSGSGTDFTLKISRVEAEDVGVYYCAQGTSVPFTFGQGTKLEIK | 1.1

Second part, the binder after the results:

fold change of affinity [fold] | Binder
0.7 | H183/L072 VL A89G (antibody, name in Kabat numbering, V domains shown) VH: QVQLVESGGGLVQPGRSLRLSCAASGFTFSNAWMHWVRQAPGKGLEWVAQIKDKGNAYAAYYAPSVKGRFTISRDDSKNSIYLQMNSLKTEDTAVYYCHYVHYASASTVLPAFGVDAWGQGTTVTVSS VL: DIVMTQSPLSLPVTPGEPASISCQASQELVHMNRNTYLHWYQQKPGQAPRLLIYKVSNRFPGVPDRFSGSGSGTDFTLKISRVEAEDVGVYYCGQGTSVPFTFGQGTKLEIK
1.4 | H183/L072 VL E27aG (antibody, name in Kabat numbering, V domains shown) VH: QVQLVESGGGLVQPGRSLRLSCAASGFTFSNAWMHWVRQAPGKGLEWVAQIKDKGNAYAAYYAPSVKGRFTISRDDSKNSIYLQMNSLKTEDTAVYYCHYVHYASASTVLPAFGVDAWGQGTTVTVSS VL: DIVMTQSPLSLPVTPGEPASISCQASQGLVHMNRNTYLHWYQQKPGQAPRLLIYKVSNRFPGVPDRFSGSGSGTDFTLKISRVEAEDVGVYYCAQGTSVPFTFGQGTKLEIK
1.1 | H183/L072 VL E27aF (antibody, name in Kabat numbering, V domains shown) VH: QVQLVESGGGLVQPGRSLRLSCAASGFTFSNAWMHWVRQAPGKGLEWVAQIKDKGNAYAAYYAPSVKGRFTISRDDSKNSIYLQMNSLKTEDTAVYYCHYVHYASASTVLPAFGVDAWGQGTTVTVSS VL: DIVMTQSPLSLPVTPGEPASISCQASQFLVHMNRNTYLHWYQQKPGQAPRLLIYKVSNRFPGVPDRFSGSGSGTDFTLKISRVEAEDVGVYYCAQGTSVPFTFGQGTKLEIK
0.4 | H183/L072 VL A89V (antibody, name in Kabat numbering, V domains shown) VH: QVQLVESGGGLVQPGRSLRLSCAASGFTFSNAWMHWVRQAPGKGLEWVAQIKDKGNAYAAYYAPSVKGRFTISRDDSKNSIYLQMNSLKTEDTAVYYCHYVHYASASTVLPAFGVDAWGQGTTVTVSS VL: DIVMTQSPLSLPVTPGEPASISCQASQELVHMNRNTYLHWYQQKPGQAPRLLIYKVSNRFPGVPDRFSGSGSGTDFTLKISRVEAEDVGVYYCVQGTSVPFTFGQGTKLEIK
1.4 | H183/L072 VL E27aH (antibody, name in Kabat numbering, V domains shown) VH: QVQLVESGGGLVQPGRSLRLSCAASGFTFSNAWMHWVRQAPGKGLEWVAQIKDKGNAYAAYYAPSVKGRFTISRDDSKNSIYLQMNSLKTEDTAVYYCHYVHYASASTVLPAFGVDAWGQGTTVTVSS VL: DIVMTQSPLSLPVTPGEPASISCQASQHLVHMNRNTYLHWYQQKPGQAPRLLIYKVSNRFPGVPDRFSGSGSGTDFTLKISRVEAEDVGVYYCAQGTSVPFTFGQGTKLEIK
